Source: article doi:10.1101/2023.01.23.525163

Target: His-caltubin-Tat (cell-penetrating caltubin) (Lymnaea stagnalis | HIV)
Assay: ITC

Ac-LDHKFDLMYAKRAFV-NH2 [L391 peptide (synthetic, TUBA1 L391-V405)]
Kd: 3.42 µM
